Experimental findings from US20020123623 are described below.

The test system of the data set is T1, Ntlim1 (effector plasmid, BY-2 protoplasts) (Nicotiana tabacum).
T1 sequence: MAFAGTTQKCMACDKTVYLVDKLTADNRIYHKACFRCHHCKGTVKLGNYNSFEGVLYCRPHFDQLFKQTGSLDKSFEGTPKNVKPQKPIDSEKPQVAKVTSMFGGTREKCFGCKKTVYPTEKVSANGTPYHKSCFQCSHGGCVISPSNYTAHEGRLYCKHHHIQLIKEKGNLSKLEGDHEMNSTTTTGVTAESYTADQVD
As to the kind of experiment: cell_activity. To be noted: about three times GUS expression vs reporter alone in tobacco BY-2 protoplasts; direct binding not measured.

Sequence CCACTTGAGTAC (double strand) returned an activity of 3 fold.
